Test results as given in US20200392228A1 (PANDION OPERATIONS, published 2020).
Substitutions are numbered along the chain they refer to. Names may count otherwise.

T1: human MAdCAM protein (human, UniProt Q13477 19-317)
T1 construct: used for Octet, SPR, ELISA and plate capture; construct not described; also called recombinant human MAdCAM; soluble monomeric human MAdCAM
T1 sequence (looked up): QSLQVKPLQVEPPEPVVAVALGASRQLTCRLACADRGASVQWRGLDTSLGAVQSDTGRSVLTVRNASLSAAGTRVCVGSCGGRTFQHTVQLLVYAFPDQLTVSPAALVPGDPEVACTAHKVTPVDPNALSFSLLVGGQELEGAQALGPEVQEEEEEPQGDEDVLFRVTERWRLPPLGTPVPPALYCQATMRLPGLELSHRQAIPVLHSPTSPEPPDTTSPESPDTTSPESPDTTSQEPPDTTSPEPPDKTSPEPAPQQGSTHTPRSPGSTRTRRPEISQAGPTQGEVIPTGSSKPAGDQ

T2: mouse MAdCAM protein (mouse, UniProt Q61826 22-365, limits assumed)
T2 construct: also called recombinant mouse MAdCAM-1; mMAdCAM-1
T2 sequence (looked up): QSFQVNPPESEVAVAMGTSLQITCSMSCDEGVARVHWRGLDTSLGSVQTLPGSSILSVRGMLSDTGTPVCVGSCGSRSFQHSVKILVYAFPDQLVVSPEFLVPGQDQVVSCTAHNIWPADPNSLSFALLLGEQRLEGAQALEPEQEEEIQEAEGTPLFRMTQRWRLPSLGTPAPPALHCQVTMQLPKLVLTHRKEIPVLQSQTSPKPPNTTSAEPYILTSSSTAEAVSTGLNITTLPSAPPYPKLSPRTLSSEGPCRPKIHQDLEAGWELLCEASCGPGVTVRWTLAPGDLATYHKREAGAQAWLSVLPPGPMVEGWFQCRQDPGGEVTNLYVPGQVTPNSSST

T3: human MAdCAM expressed on cells (human, UniProt Q13477 19-382)
T3 construct: whole, on cells; also called MADCAM1
T3 sequence (looked up): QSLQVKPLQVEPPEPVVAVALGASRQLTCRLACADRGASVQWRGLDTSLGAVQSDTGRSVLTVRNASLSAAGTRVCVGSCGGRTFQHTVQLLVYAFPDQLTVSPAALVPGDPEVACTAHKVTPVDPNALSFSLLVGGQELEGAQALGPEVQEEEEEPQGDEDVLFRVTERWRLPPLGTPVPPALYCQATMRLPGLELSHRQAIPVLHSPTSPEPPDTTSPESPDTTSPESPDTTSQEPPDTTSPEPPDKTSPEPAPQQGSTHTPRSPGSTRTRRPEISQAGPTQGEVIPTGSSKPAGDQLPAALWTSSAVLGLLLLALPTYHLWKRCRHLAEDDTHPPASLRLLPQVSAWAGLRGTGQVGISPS

T4: mouse MAdCAM expressed on cells (mouse, UniProt Q61826 22-405)
T4 construct: whole, on cells
T4 sequence (looked up): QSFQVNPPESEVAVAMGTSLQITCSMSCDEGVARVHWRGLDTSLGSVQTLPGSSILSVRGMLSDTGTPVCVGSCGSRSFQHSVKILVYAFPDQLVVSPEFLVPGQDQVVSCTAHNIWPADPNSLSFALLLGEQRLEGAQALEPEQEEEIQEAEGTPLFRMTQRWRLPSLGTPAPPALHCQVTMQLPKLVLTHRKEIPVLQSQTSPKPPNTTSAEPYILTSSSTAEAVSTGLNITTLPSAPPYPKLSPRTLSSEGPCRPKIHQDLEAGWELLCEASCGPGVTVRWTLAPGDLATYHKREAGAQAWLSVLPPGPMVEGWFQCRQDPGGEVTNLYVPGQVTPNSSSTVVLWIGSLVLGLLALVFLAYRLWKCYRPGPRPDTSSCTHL

T5: CD25 (Homo sapiens (Human), UniProt P01589 22-240)
T5 construct: also called IL-2R alpha chain
T5 sequence: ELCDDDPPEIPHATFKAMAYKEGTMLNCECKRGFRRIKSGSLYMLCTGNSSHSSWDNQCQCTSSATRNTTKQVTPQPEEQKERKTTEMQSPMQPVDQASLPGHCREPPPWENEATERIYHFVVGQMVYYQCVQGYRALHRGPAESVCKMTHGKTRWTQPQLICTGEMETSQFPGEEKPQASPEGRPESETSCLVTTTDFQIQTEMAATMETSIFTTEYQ

B1: MAdCAM antibody Clone ID 23 of Table 6 (scFv) (scFv)
scFv: EVQLLESGGGLVQPGGSLRLSCAASGFTFSSYAMHWVRQAPGKGLEWVSGISGSGGSAYYADSVKGRFTISRDNSKNTLYLQMNSLRAEDTAVYYCATSQAPVDYYYYGMDVWGQGTTVTVSSGGGGSGGGGSGGGGSGGGGSDIQMTQSPSSLSASVGDRVTITCRASQSISSWLAWYQQKPGKAPKLLIYAASNLQRGVPSRFSGSGSGTDFTLTISSLQPEDFATYYCQQSYSIPITFGQGTKVEIK
B2: MAdCAM antibody Clone ID 19 of Table 6 (scFv) (scFv)
scFv: EVQLLESGGGLVQPGGSLRLSCAASGFTFDDYAMHWVRQAPGKGLEWVSGISWNSGSIGYADSVKGRFTISRDNSKNTLYLQMNSLRAEDTAVYYCAKDIVAAGHYYYGMDVWGQGTTVTVSSGGGGSGGGGSGGGGSGGGGSDIQMTQSPSSLSASVGDRVTITCQASQDISNYLNWYQQKPGKAPKLLIYDASNLETGVPSRFSGSGSGTDFTLTISSLQPEDFATYYCQQSYSTPLTFGGGTKVEIK
B3: MAdCAM antibody Clone ID 20 of Table 6 (scFv) (scFv)
scFv: EVQLLESGGGLVQPGGSLRLSCAASGFTFDDYAMHWVRQAPGKGLEWVSYIDTSSSHLYYADSVKGRFTISRDNSKNTLYLQMNSLRAEDTAVYYCARDEAAAGYYGMDVWGQGTTVTVSSGGGGSGGGGSGGGGSGGGGSDIQMTQSPSSLSASVGDRVTITCQAGQDISNYLNWYQQKPGKAPKLLIYDASNLETGVPSRFSGSGSGTDFTLTISSLQPEDFATYYCQQTYSTPITFGQGTKLEIK
B4: human IL-2M fused N-terminally to human IgG1 Fc domain (SEQ ID NO: 57) (Fc fusion)
chain: APTSSSTKKTQLQLEHLLLDLQMILNGINNYKNPKLTRMLTFKFYMPKKATELKHLQCLEEELKPLEEALNLAPSKNFHLRPRDLISDINVIVLELKGSETTFMCEYADETATIVEFLNRWITFSQSIISTLTGGGGSGGGGSGGGGSGGGGSDKTHTCPPCPAPEAAGAPSVFLFPPKPKDTLMISRTPEVTCVVVDVSHEDPEVKFNWYVDGVEVHNAKTKPREEQYNSTYRVVSVLTVLHQDWLNGKEYKCKVSNKALPAPIEKTISKAKGQPREPQVYTLPPSREEMTKNQVSLTCLVKGFYPSDIAVEWESNGQPENNYKTTPPVLDSDGSFFLYSKLTVDKSRWQQGNVFSCSVMHEALHNHYTQKSLSLSPG
notes: also called IL-2 N88D V69A, Q74P-G4Sx4-Fc
B5: IL-2M SEQ ID NO: 54 (Fc fusion)
chain: B4 chain with L56I
notes: also called IL-2 L56I N88D V69A, Q74P, C125S-G4Sx4-Fc
B6: IL-2M SEQ ID NO: 55 (Fc fusion)
chain: B4 chain with L80I
notes: also called IL-2 L80I N88D V69A, C125S Q74P-G4Sx4-Fc
B7: IL-2M SEQ ID NO: 56 (Fc fusion)
chain: B4 chain with L118I
notes: also called IL-2 L118I N88D V69A, Q74P, C125S-G4Sx4-Fc
B8: IL-2M SEQ ID NO: 53 (Fc fusion)
chain: B4 chain with L53I
notes: also called IL-2 L53I N88D V69A, Q74P, C125S-G4Sx4-Fc

What follows are binders tested against T1, human MAdCAM protein (assay: Octet).

Binder	binding result
B1	binds
B2	binds
B3	binds

Each binder was assayed against T2, mouse MAdCAM protein (assay: Octet).

Binder	binding result
B1	no binding
B2	no binding
B3	no binding

The binders below were run against T3, human MAdCAM expressed on cells (assay: cell binding).

Binder	binding result
B1	binds
B2	binds
B3	binds

The binders below were run against T4, mouse MAdCAM expressed on cells (assay: cell binding).

Binder	binding result
B1	no binding
B2	no binding
B3	no binding

What follows are binders tested against T5, CD25 (assay: ELISA, plate-bound CD25).
Method: An immunosorbent plate was coated with CD25 at a concentration of 0.5 μg/mL in PBS pH 7.4, 75 ul/well, and incubated overnight at 4° C. Wells were washed with PBS pH 7.4 containing 0.05% Tween-20 (wash buffer) three times, and then blocked with 200 ul/well 1% BSA in PBS pH 7.4 (block buffer) for two hours at room temperature. After three washes with wash buffer IL-2M molecules of Example 12 were diluted to eleven—two fold serial dilution in PBS containing 1% BSA and 0.05% Tween-20 (assay buffer) with 2 nM being the highest concentration. The diluted material was added to the CD25 coated plate at 75 ul/well for 1 hour at room temperature. After three washes with wash buffer, a goat biotinylated anti-IL-2 polyclonal antibody, diluted to 0.05 μg/mL in assay buffer, was added to the plate at 75 ul/well for 1 hr at room temperature. After three washes with wash buffer high sensitivity streptavidin HRP diluted in assay buffer at 1:5000 was added to the plate at 75 ul/well for 15 minutes at room temperature. After three washes with wash buffer and 1 wash with wash buffer (with no tween-20), the assay was developed with TMB, and stopped with 1N HCL. OD 450 nm was measured. The experiment included appropriate controls for non-specific binding of IL-2M molecules to the plate/block in the absence of CD25 and a negative control molecule that is unable to bind CD25.

Binder	EC50
B4	< 1 nM
B5	< 1 nM
B6	< 1 nM
B7	< 1 nM
B8	< 1 nM
